In patent US11020455B2, “Colony stimulating factor for use in pancreatic or colon cancer treatment” (ENDOR TECHNOLOGIES, S.L., priority 2015, dated 2021):

B1: G-CSF: Granulocyte Colony Stimulating Factor, recombinant protein; Filgrastim (Amgen) used in the experiments (protein, UniProt P09919 31-207, looked up)
Granulocyte …: TPLGPASSLPQSFLLKCLEQVRKIQGDGAALQEKLVSECATYKLCHPEELVLLGHSLGIPWAPLSSCPSQALQLAGCLSQLHSGLFLYQGLLQALEGISPELGPTLDTLQLDVADFATTIWQQMEELGMAPALQPTQGAMPAFASAFQRRAGGVLVASHLQSFLEVSYRVLRHLAQP
modifications: N-terminal methionine (filgrastim)
notes: Granulocyte Colony Stimulating Factor, recombinant protein; Filgrastim (Amgen) used in the experiments

Experiments:
melanoma = details: subcutaneous long-term therapy after surgical resection; cited from earlier work
prostate cancer = details: patients with prostate cancer; cited from earlier work
sarcoma = details: monotherapy; cited from earlier work
[1] = tested on: peripheral blood granulocytes; test: Peripheral blood granulocyte levels after single subcutaneous G-CSF injection in healthy C57BJL6 mice; type: in vivo, mouse
Method: (§1) Depiction of the peripheral blood granulocytes levels in healthy C57BJL6 and Athymic nu/nu mice after the subcutaneous injection of a single dose of G-CSF (10 μg/kg) in C57BJL6, and 10, 25, 50 and 100 μg/kg of G-CSF in Athymic nu/nu mice. Blood samples were taken at different time points and peripheral blood granulocytes levels are represented as a total number of granulocytes (GRA×10^9/L).
(§2) As peripheral blood is the only tissue routinely available from mice, the peripheral blood hemogram was also assessed in order to provide information about the behavior of blood cell populations after the subcutaneous injection of different G-CSF doses (Filgrastim—Amgen). […] Inventors especially focused their attention on the distribution of granulocytes in the peripheral blood which was determined at 1, 5 or 2, 6, 10 and 24 hrs after an initial dose of G-CSF subcutaneously. Peripheral blood granulocytes levels were analyzed in healthy (FIG. 7), and tumor-bearing mice (FIG. 8). […]

[2] = tested on: peripheral blood granulocytes; test: Peripheral blood granulocyte levels after single subcutaneous G-CSF injection in healthy athymic nu/nu mice; type: in vivo, mouse
Method: as §1
(§3) As peripheral blood is the only tissue routinely available from mice, the peripheral blood hemogram was also assessed in order to provide information about the behavior of blood cell populations after the subcutaneous injection of different G-CSF doses (Filgrastim—Amgen). The peripheral blood collected from the right femoral artery with a heparinized syringe in vacutainer blood collection tubes containing EDTA (Sarstedt Microvette® CB 300) were immediately subjected to differential blood cell counts (red blood cells (RBCs), white blood cells (WBCs), and blood platelets (PLTs)) and measurement of blood hemoglobin concentration using a blood cell differential automatic analyzer (ABACUS JUNIOR VET). The data for each experimental group were obtained from three to five mice. Inventors especially focused their attention on the distribution of granulocytes in the peripheral blood which was determined at 1, 5 or 2, 6, 10 and 24 hrs after an initial dose of G-CSF subcutaneously. Peripheral blood granulocytes levels were analyzed in healthy (FIG. 7), and tumor-bearing mice (FIG. 8). C57BJL6 healthy mice were injected with G-CSF 10 μg/kg and healthy athymic nu/nu mice were injected with different doses of G-CSF: 0, 10, 25, 50 and 100 μg/kg (FIG. 7). Athymic nu/nu mice bearing subcutaneous MiaPaca tumor were injected with G-CSF 10, 25, 50 and 100 μg/kg and blood was extracted at 1.5 hr (FIG. 8).

Panc-1 SC tumors = test: Antitumoral efficacy in Panc-1 SC tumor model (athymic nu/nu mice); type: in vivo, mouse; details: Panc-1, 10 μg/Kg SC daily, 48 days of treatment
Method: (§4) It is depicted the antitumoral efficacy of G-CSF in human pancreatic SC tumors. Athymic nu/nu mice bearing Panc-1 SC tumors were daily treated with subcutaneous G-CSF injection at a dose of 10 μg/Kg, while GE was injected intraperitoneal at a dose of 80 mg/Kg two times per week during the whole experiment. Total tumor volume (mm^3±SE) in saline (solid lines), G-CSF 10 μg/Kg (dashed lines) and GE 80 mg/kg (dotted) groups, for 48 days of treatment are represented.
(§5) Human pancreatic adenocarcinoma cell lines, Panc-1 and MiaPaca cells and the mouse pancreatic adenocarcinoma cells Panc02, were used for pancreatic cancer efficacy studies. Murine colorectal carcinoma cell line, Colon-26 cells, was used for colon cancer efficacy studies. […]
(§6) Mouse Models and Tumor Growth Studies Animal procedures met the guidelines of European Community Directive 86/609/EEC and were approved by the Local Ethical Committee. […] All animals were weighed and tumors were measured using manual caliper three times per week. SC tumor volumes were calculated according to the formula described by Attia and Weiss (Attia M A, et. al. “Immunology of spontaneous mammary carcinomas in mice. V. Acquired tumor resistance and enhancement in strain A mice infected with mammary tumor virus” Cancer Res. 1966, vol. 26, pp, 1787-1800), V (mm^3)=0.4×(larger diameter×smaller diameter^2). […]

MiaPaca SC tumors = test: Antitumoral efficacy in MiaPaca SC tumor model (athymic nu/nu mice); type: in vivo, mouse; details: 10 μg/Kg SC daily, 37 days after treatment
Method: as §4, with “MiaPaca” for “Panc-1”, “μg/kg,” for “μg/Kg,”, “μg/kg” for “μg/Kg”, “37” for “48”
as §5, §6

Panc02 SC tumors = test: Antitumoral efficacy in Panc02 SC tumor model (C57BJL6 mice); type: in vivo, mouse; details: Panc02, 100 μg/Kg SC daily, 20 days of treatment
Method: It is depicted the antitumoral efficacy of G-CSF in murine pancreatic SC tumors. C57BJL6 mice bearing Panc02 SC tumors were daily treated with subcutaneous G-CSF injection at a dose of 100 μg/kg. […]
as §5, §6

Colon-26 SC tumors [3] = test: Antitumoral efficacy in Colon-26 SC tumor model (Balb/C mice); type: in vivo, mouse; details: Colon-26, 10 μg/Kg SC daily, 18 days of treatment
Method: It is depicted the antitumoral efficacy of G-CSF in mouse colorectal SC tumors. BalbC mice bearing colorectal SC tumors were daily treated with subcutaneous G-CSF injection at a dose of 10 μg/kg. Total tumor volume (mm^3±SE) in saline (solid lines) and G-CSF10 μg/kg (dashed lines) groups, for 18 days of treatment are represented.
Depiction of the antitumoral efficacy of G-CSF in colorectal SC tumors. BalbC mice bearing Colon-26 SC tumors, with and without Sephadex papula, were treated daily with subcutaneous G-CSF injection at a dose of 50 ug/kg. […]
as §6
Antitumoral experiments were carried out on immunocompetent Balb/C tumor-bearing mice treated with Sephadex. […] There were 4 animals per group and their survival was monitored daily (FIG. 6). […]

Colon-26 SC tumors [4] = test: Effect of Sephadex on G-CSF antitumoral efficacy in Colon-26 model; type: in vivo, mouse; details: Colon-26 and Sephadex, 50 μg/Kg SC daily, 19 days
Method: Depiction of the antitumoral efficacy of G-CSF in colorectal SC tumors. BalbC mice bearing Colon-26 SC tumors, with and without Sephadex papula, were treated daily with subcutaneous G-CSF injection at a dose of 50 ug/kg. Total tumor volume (mm^3±SE) of saline (circle), G-CSF 50 μg/kg (square, abbreviated IT50), Sephadex-Saline (triangle), and Sephadex+G-CSF 50 μg/kg (cross, abbreviated IT-Sephadex.), for 19 days of treatment are represented.
Antitumoral experiments were carried out on immunocompetent Balb/C tumor-bearing mice treated with Sephadex. Sephadex treatments were initiated when SC Colon-26 tumors reached a tumor volume ranging from 90 to 110 mm^3 and 0.5 mL of Sephadex 16% (Sephadex G-150, Pharmacia Fine Chemicals, Sweden) was subcutaneously injected in the left side flank of mice. Control animals included were Saline and Sephadex groups. In this experiment, G-CSF group was treated at a dose of 50 μg/Kg (Filgrastim—Amgen). There were 4 animals per group and their survival was monitored daily (FIG. 6). In this model, Sephadex distracts functional granulocytes from the blood into the Sephadex papula thus abolishing G-CSF antitumoral activity. […]

[5] = tested on: tumor-infiltrating granulocytes; test: Tumor granulocytes (CD45+CD11b+Ly6G+) by flow cytometry in Colon-26 tumors; type: in vivo, mouse; details: 10 μg/Kg SC, day 5, flow cytometry
Method: Depiction of the tumor granulocyte levels, defined as a CD45+CD11b+Ly6G+ triple positive population, analyzed by flow cytometry from Colon-26 tumors treated with 10 μg/kg of G-CSF during 5 days. Granulocytes cells from tumor are represented as a % of positive cells±SE.
To evaluate the antitumoral capacity of G-CSF in murine colorectal carcinoma, immunocompetent Balb/C mice bearing Colon-26 tumors were treated when SC tumors reached a tumor volume ranging from 90 to 110 mm^3. For G-CSF therapy, Balb/C mice were randomly divided in Saline and G-CSF groups. G-CSF treatment (Filgrastim—Amgen) was applied subcutaneously every day during the whole experiment (FIG. 4). At day 5 of the experiments, 4 animals of each treatment were sacrificed and tumors were collected. Granulocytes (GRA) cells were detected by FACS, analyzing the markers of these cells: CD45+CD11b+Ly6G (FIG. 5). Details about each treatment are described in the present table: […]

[6] = tested on: peripheral blood granulocytes; test: Peripheral blood granulocyte levels in athymic nu/nu mice bearing MiaPaca SC tumors; type: in vivo, mouse; details: MiaPaca tumor-bearing nu/nu mice, first SC injection at 10, 25, 50 and 100 μg/kg, blood at 1.5 hr
Method: Depiction of peripheral blood granulocytes levels in Athymic nu/nu mice bearing MiaPaca SC tumors after the subcutaneous injection of G-CSF 10, 25, 50 and 100 μg/kg. Blood samples were taken at 1.5 hr and peripheral blood granulocytes levels are represented as a total number of granulocytes (GRA 10^9/L).
as §3, with “C57BJL6 healthy mice were injected with G-CSF 10 μg/kg and healthy athymic nu/nu mice were injected with different doses of G-CSF: 0, 10, 25, 50 and 100 μg/kg (FIG. 7). Athymic nu/nu mice bearing subcutaneous MiaPaca tumor were injected with G-CSF 10, 25, 50 and 100 μg/kg and blood was extracted at 1.5 hr (FIG. 8).” left out

[7] = tested on: neutrophils in peripheral blood; test: Peripheral blood neutrophil levels in Colon-26 mice with Sephadex; type: in vivo, mouse; details: Sephadex-treated Colon-26 mice
Method: Antitumoral experiments were carried out on immunocompetent Balb/C tumor-bearing mice treated with Sephadex. Sephadex treatments were initiated when SC Colon-26 tumors reached a tumor volume ranging from 90 to 110 mm^3 and 0.5 mL of Sephadex 16% (Sephadex G-150, Pharmacia Fine Chemicals, Sweden) was subcutaneously injected in the left side flank of mice. Control animals included were Saline and Sephadex groups. In this experiment, G-CSF group was treated at a dose of 50 μg/Kg (Filgrastim—Amgen). There were 4 animals per group and their survival was monitored daily (FIG. 6). In this model, Sephadex distracts functional granulocytes from the blood into the Sephadex papula thus abolishing G-CSF antitumoral activity.
as §2

Row | Molecule | therapeutic effect in melanoma patients (melanoma) | therapeutic benefit in prostate cancer patients (prostate cancer) | therapeutic benefit in sarcoma (sarcoma) | increase of granulocyte levels compared to untreated animals ([1]; single SC dose 10 μg/Kg) | time of maximum peripheral blood granulocyte levels post-G-CSF injection ([1]; single SC injection) | increase of granulocyte levels compared to untreated animals ([2]; single SC dose 10 μg/Kg) | increase of granulocyte levels compared to untreated animals ([2]; single SC dose 25 μg/Kg) | increase of granulocyte levels compared to untreated animals ([2]; single SC dose 50 μg/Kg) | increase of granulocyte levels compared to untreated animals ([2]; single SC dose 100 μg/Kg) | time of maximum peripheral blood granulocyte levels post-G-CSF injection ([2]; single SC injection) | tumor inhibition compared to saline (Panc-1 SC tumors) | tumor inhibition compared to saline (MiaPaca SC tumors) | tumor inhibition compared to saline (Panc02 SC tumors) | tumor inhibition (Colon-26 SC tumors [3]) | tumor inhibition (Colon-26 SC tumors [4]) | tumor-infiltrating granulocytes (CD45+CD11b+Ly6G+ triple positive population) [5] | peripheral blood granulocyte levels [6] | neutrophils levels in peripheral blood after G-CSF injection [7]
1 | GM-CSF: Granulocyte Macrophage Colony Stimulating Factor, recombinant protein; only literature results cited | therapeutic effect | therapeutic benefit | did not reveal a therapeutic benefit | – | – | – | – | – | – | – | – | – | – | – | – | – | – | –
2 | B1 | – | – | – | 2.5 fold | 6 h | 2.5 fold | 3.5 fold | 3.7 fold | 3.5 fold | 6 h | up to 90% | up to 55% | around 50% | up to 60% | 50% | significant increase | increase in a dose response manner | smoothly recovered
